# Measured values taken from US20020147168.
# Columns and labels:
# Assay in all cases: cell_activity
# [1] = tested on: nlsCre recombinase from intron-containing gene (inlscre) S2A (Bacteriophage P1); conditions: pBS210 excision in Nicotiana plumbaginifolia protoplasts, 72 h; also in planta excision in tobacco from pBS229
# [2] = tested on: Cre recombinase S2A (Bacteriophage P1); conditions: pBS210 excision in Nicotiana plumbaginifolia protoplasts, 72 h; pBS210 alone 0
# [3] = tested on: nlsCre recombinase S2A (Bacteriophage P1); conditions: pBS210 excision in Nicotiana plumbaginifolia protoplasts, 72 h; pBS210 alone 0
substance,measurement,setting,value
"loxP sites in direct repeat (pBS210, pBS229)",activity (GUS units/25 ug protein),[1],51
same,activity (GUS units/25 ug protein),[2],133
same,activity (GUS units/25 ug protein),[3],141
